Assay results: US6682731

Molecular target: HLA-A2 molecule (MHC class I heterodimer, no peptide of the filing added) (human)
Assay: titration of peptide in 0.174 cell lysate, HLA-A2 stabilisation, immunoprecipitation with BB7.2
Settings: remark: other sources report otherwise

Question: With ALSRKVAEL [peptide SEQ ID NO: 2, Ala Leu Ser Arg Lys Val Ala Glu Leu] as the binder, how does the concentration at which the peptide titrated read?
Answer: The concentration at which the peptide titrated was 5 to 10 nM.
